Each block holds one binder with its values, some of them ahead of it.
Experiments:
Assay in all cases: ELISA
CD27-moFc = molecular target: T1, CD27-moFc (UniProt P26842 20-191)
T1 sequence (looked up): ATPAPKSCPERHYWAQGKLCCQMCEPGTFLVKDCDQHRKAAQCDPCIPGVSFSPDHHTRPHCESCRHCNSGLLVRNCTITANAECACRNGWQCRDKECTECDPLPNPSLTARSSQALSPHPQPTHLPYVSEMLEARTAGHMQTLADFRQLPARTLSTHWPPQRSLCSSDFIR

CD40-huFc = CD40-huFc (UniProt P25942 21-193)
OX40-moFc = molecular target: T2, OX40-moFc (UniProt P43489 29-214)
T2 sequence (looked up): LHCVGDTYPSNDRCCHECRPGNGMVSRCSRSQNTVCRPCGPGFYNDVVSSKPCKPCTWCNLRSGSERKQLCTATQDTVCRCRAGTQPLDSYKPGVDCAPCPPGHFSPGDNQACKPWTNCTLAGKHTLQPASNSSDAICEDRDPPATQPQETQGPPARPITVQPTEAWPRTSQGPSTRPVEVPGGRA

CD40-moFc = CD40-moFc (UniProt P25942 21-193)
mOX40-Fc = molecular target: T3, mOX40-Fc (mouse, UniProt P47741 20-211)
T3 sequence (looked up): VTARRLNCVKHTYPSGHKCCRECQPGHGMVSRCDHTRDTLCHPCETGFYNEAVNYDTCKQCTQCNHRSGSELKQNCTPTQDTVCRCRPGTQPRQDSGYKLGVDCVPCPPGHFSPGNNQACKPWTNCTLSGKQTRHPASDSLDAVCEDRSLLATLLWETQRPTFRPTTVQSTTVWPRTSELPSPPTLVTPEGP

m4-1BB-Fc = molecular target: T4, m4-1BB-Fc (mouse, UniProt P20334 24-187)
T4 sequence (looked up): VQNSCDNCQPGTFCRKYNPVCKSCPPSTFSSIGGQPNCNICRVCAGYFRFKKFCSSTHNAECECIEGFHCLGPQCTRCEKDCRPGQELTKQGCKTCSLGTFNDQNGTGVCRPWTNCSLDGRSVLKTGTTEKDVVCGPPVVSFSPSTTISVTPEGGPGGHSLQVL

mCD27-Fc = molecular target: T5, mCD27-Fc (mouse, UniProt P41272 24-182)
T5 sequence (looked up): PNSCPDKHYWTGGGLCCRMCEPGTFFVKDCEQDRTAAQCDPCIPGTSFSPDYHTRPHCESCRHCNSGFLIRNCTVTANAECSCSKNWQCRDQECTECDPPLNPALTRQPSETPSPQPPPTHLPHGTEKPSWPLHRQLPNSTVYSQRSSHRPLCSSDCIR

mCD40-Fc = molecular target: T6, mCD40-Fc (mouse, UniProt P27512 20-193)
T6 sequence (looked up): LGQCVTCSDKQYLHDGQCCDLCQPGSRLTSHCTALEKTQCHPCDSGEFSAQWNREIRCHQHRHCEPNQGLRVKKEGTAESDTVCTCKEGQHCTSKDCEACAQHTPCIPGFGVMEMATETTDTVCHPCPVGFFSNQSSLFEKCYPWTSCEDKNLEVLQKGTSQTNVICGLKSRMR

CD40-huFc, sequence (P25942 21-193): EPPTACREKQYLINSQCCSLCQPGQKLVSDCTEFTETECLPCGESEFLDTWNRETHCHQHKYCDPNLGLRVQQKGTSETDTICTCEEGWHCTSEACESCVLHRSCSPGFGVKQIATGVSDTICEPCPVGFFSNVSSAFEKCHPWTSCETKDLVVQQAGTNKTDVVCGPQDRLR
CD40-moFc, sequence (P25942 21-193): as above

EC50 (OX40-moFc): 0.2 nM
EC50 (CD40-moFc): 0.3 nM
EC50 (CD40-huFc): 0.5 nM
B2: scCD40L-scOX40L-Fc (Fc fusion, human)
chain 1: GDQNPQIAAHVISEASSKTTSVLQWAEKGYYTMSNNLVTLENGKQLTVKRQGLYYIYAQVTFCSNREASSQAPFIASLCLKSPGRFERILLRAANTHSSAKPCGQQSIHLGGVFELQPGASVFVNVTDPSQVSHGTGFTSFGLLKLGGGDQNPQIAAHVISEASSKTTSVLQWAEKGYYTMSNNLVTLENGKQLTVKRQGLYYIYAQVTFCSNREASSQAPFIASLCLKSPGRFERILLRAANTHSSAKPCGQQSIHLGGVFELQPGASVFVNVTDPSQVSHGTGFTSFGLLKLGGGDQNPQIAAHVISEASSKTTSVLQWAEKGYYTMSNNLVTLENGKQLTVKRQGLYYIYAQVTFCSNREASSQAPFIASLCLKSPGRFERILLRAANTHSSAKPCGQQSIHLGGVFELQPGASVFVNVTDPSQVSHGTGFTSFGLLKL
chain 2: QVSHRYPRIQSIKVQFTEYKKEKGFILTSQKEDEIMKVQNNSVIINCDGFYLISLKGYFSQEVNISLHYQKDEEPLFQLKKVRSVNSLMVASLTYKDKVYLNVTTDNTSLDDFHVNGGELILIHQNPGEFCVLGGGGSGGGGSGGGGSQVSHRYPRIQSIKVQFTEYKKEKGFILTSQKEDEIMKVQNNSVIINCDGFYLISLKGYFSQEVNISLHYQKDEEPLFQLKKVRSVNSLMVASLTYKDKVYLNVTTDNTSLDDFHVNGGELILIHQNPGEFCVLGGGGSGGGGSGGGGSQVSHRYPRIQSIKVQFTEYKKEKGFILTSQKEDEIMKVQNNSVIINCDGFYLISLKGYFSQEVNISLHYQKDEEPLFQLKKVRSVNSLMVASLTYKDKVYLNVTTDNTSLDDFHVNGGELILIHQNPGEFCVL

EC50 (mCD27-Fc): 0.4 nM
EC50 (mCD40-Fc): 1.4 nM
B4: mscCD40L-mscCD27L-mFc (Fc fusion)
chain 1: HRRLDKVEEEVNLHEDFVFIKKLKRCNKGEGSLSLLNCEEMRRQFEDLVKDITLNKEEKKENSFEMQRGDEDPQIAAHVVSEANSNAASVLQWAKKGYYTMKSNLVMLENGKQLTVKREGLYYVYTQVTFCSNREPSSQRPFIVGLWLKPSSGSERILLKAANTHSSSQLCEQQSVHLGGVFELQAGASVFVNVTEASQVIHRVGFSSFGLLKLGGHRRLDKVEEEVNLHEDFVFIKKLKRCNKGEGSLSLLNCEEMRRQFEDLVKDITLNKEEKKENSFEMQRGDEDPQIAAHVVSEANSNAASVLQWAKKGYYTMKSNLVMLENGKQLTVKREGLYYVYTQVTFCSNREPSSQRPFIVGLWLKPSSGSERILLKAANTHSSSQLCEQQSVHLGGVFELQAGASVFVNVTEASQVIHRVGFSSFGLLKLGGHRRLDKVEEEVNLHEDFVFIKKLKRCNKGEGSLSLLNCEEMRRQFEDLVKDITLNKEEKKENSFEMQRGDEDPQIAAHVVSEANSNAASVLQWAKKGYYTMKSNLVMLENGKQLTVKREGLYYVYTQVTFCSNREPSSQRPFIVGLWLKPSSGSERILLKAANTHSSSQLCEQQSVHLGGVFELQAGASVFVNVTEASQVIHRVGFSSFGLLKL
chain 2: SKQQQRLLEHPEPHTAELQLNLTVPRKDPTLRWGAGPALGRSFTHGPELEEGHLRIHQDGLYRLHIQVTLANCSSPGSTLQHRATLAVGICSPAAHGISLLRGRFGQDCTVALQRLTYLVHGDVLCTNLTLPLLPSRNADETFFGVQWICPGGSKQQQRLLEHPEPHTAELQLNLTVPRKDPTLRWGAGPALGRSFTHGPELEEGHLRIHQDGLYRLHIQVTLANCSSPGSTLQHRATLAVGICSPAAHGISLLRGRFGQDCTVALQRLTYLVHGDVLCTNLTLPLLPSRNADETFFGVQWICPGGSKQQQRLLEHPEPHTAELQLNLTVPRKDPTLRWGAGPALGRSFTHGPELEEGHLRIHQDGLYRLHIQVTLANCSSPGSTLQHRATLAVGICSPAAHGISLLRGRFGQDCTVALQRLTYLVHGDVLCTNLTLPLLPSRNADETFFGVQWICP

Further lines, the binder ahead of its results:

B1: scCD40L-scCD27L-Fc (Fc fusion, human)
chain 1: B2 chain 1
chain 2: SLGWDVAELQLNHTGPQQDPRLYWQGGPALGRSFLHGPELDKGQLRIHRDGIYMVHIQVTLAICSSTTASRHHPTTLAVGICSPASRSISLLRLSFHQGCTIASQRLTPLARGDTLCTNLTGTLLPSRNTDETFFGVQWVRPGGSLGWDVAELQLNHTGPQQDPRLYWQGGPALGRSFLHGPELDKGQLRIHRDGIYMVHIQVTLAICSSTTASRHHPTTLAVGICSPASRSISLLRLSFHQGCTIASQRLTPLARGDTLCTNLTGTLLPSRNTDETFFGVQWVRPGGSLGWDVAELQLNHTGPQQDPRLYWQGGPALGRSFLHGPELDKGQLRIHRDGIYMVHIQVTLAICSSTTASRHHPTTLAVGICSPASRSISLLRLSFHQGCTIASQRLTPLARGDTLCTNLTGTLLPSRNTDETFFGVQWVRP
EC50 (CD27-moFc): 0.3 nM
EC50 (CD40-huFc): 0.1 nM

B3: msc4-1BBL-mscOX40L-mFc (Fc fusion)
chain 1: RTEPRPALTITTSPNLGTRENNADQVTPVSHIGCPNTTQQGSPVFAKLLAKNQASLCNTTLNWHSQDGAGSSYLSQGLRYEEDKKELVVDSPGLYYVFLELKLSPTFTNTGHKVQGWVSLVLQAKPQVDDFDNLALTVELFPCSMENKLVDRSWSQLLLLKAGHRLSVGLRAYLHGAQDAYRDWELSYPNTTSFGLFLVKPDNPWEGGGGSGGGGSGGGGSGGGGSRTEPRPALTITTSPNLGTRENNADQVTPVSHIGCPNTTQQGSPVFAKLLAKNQASLCNTTLNWHSQDGAGSSYLSQGLRYEEDKKELVVDSPGLYYVFLELKLSPTFTNTGHKVQGWVSLVLQAKPQVDDFDNLALTVELFPCSMENKLVDRSWSQLLLLKAGHRLSVGLRAYLHGAQDAYRDWELSYPNTTSFGLFLVKPDNPWEGGGGSGGGGSGGGGSGGGGSRTEPRPALTITTSPNLGTRENNADQVTPVSHIGCPNTTQQGSPVFAKLLAKNQASLCNTTLNWHSQDGAGSSYLSQGLRYEEDKKELVVDSPGLYYVFLELKLSPTFTNTGHKVQGWVSLVLQAKPQVDDFDNLALTVELFPCSMENKLVDRSWSQLLLLKAGHRLSVGLRAYLHGAQDAYRDWELSYPNTTSFGLFLVKPDNPWE
chain 2: SSSPAKDPPIQRLRGAVTRCEDGQLFISSYKNEYQTMEVQNNSVVIKCDGLYIIYLKGSFFQEVKIDLHFREDHNPISIPMLNDGRRIVFTVVASLAFKDKVYLTVNAPDTLCEHLQINDGELIVVQLTPGYCAPEGSYHSTVNQVPLGGGGSGGGGSGGGGSSSSPAKDPPIQRLRGAVTRCEDGQLFISSYKNEYQTMEVQNNSVVIKCDGLYIIYLKGSFFQEVKIDLHFREDHNPISIPMLNDGRRIVFTVVASLAFKDKVYLTVNAPDTLCEHLQINDGELIVVQLTPGYCAPEGSYHSTVNQVPLGGGGSGGGGSGGGGSSSSPAKDPPIQRLRGAVTRCEDGQLFISSYKNEYQTMEVQNNSVVIKCDGLYIIYLKGSFFQEVKIDLHFREDHNPISIPMLNDGRRIVFTVVASLAFKDKVYLTVNAPDTLCEHLQINDGELIVVQLTPGYCAPEGSYHSTVNQVPL
EC50 (mOX40-Fc): 55.2 nM
EC50 (m4-1BB-Fc): 9.2 nM

Source: PMC8786347 (Oncoimmunology, 2022)
